According to patent US20220306751A1 (MYTHIC THERAPEUTICS, published 2022):
Substitutions are numbered along the chain they refer to. One block for each binder: values may come before it.

Columns and labels:
[1] = molecular target: T1, CD123 Protein, His Tag, Acro Biosciences Cat. No. ILA-H52H6 (Homo sapiens (Human), UniProt P26951 19-305); assay: BLI, IgG on anti-human Fc sensor, pH 7.4 and pH 5.4
T1 construct: Bought protein; not shown: His tag
T1 sequence: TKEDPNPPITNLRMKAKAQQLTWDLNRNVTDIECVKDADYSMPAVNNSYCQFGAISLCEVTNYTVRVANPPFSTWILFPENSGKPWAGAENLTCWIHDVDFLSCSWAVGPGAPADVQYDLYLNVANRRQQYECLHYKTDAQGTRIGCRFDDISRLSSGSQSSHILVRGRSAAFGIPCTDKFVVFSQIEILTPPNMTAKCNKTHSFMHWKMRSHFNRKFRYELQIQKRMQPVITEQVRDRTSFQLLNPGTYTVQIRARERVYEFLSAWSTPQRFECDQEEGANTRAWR

[2] = molecular target: T2, cell surface CD123 on EOL-1 cells (CD123+) (human, UniProt P26951 19-378); assay: flow cytometry on EOL-1 (CD123+) cells, anti-human IgG Alexa Fluor 488; Example 16 calls the fitted value KD
T2 construct: EOL-1 cells, DSMZ ACC 386
Experimental: 100,000 EOL-1 cells (DSMZ ACC 386) were seeded per well in a 96 well deep well plate. IMGN632 and a pH engineered antibody variant were serially diluted at a 1:3 dilution in ice cold FC buffer (phosphate buffered saline (PBS), pH 7.4+2 mM ethylenediaminetetraacetic acid (EDTA)+2% (v/v) HI FBS). The plates were spun at 2,000 RPM for 2 minuets, the supernatant was removed, and 100 μL of diluted antibody was added to each well with final concentration ranging from 60 nM to 1 pM and incubated for 2 hours at 4° C. Post incubation, the cells were spun at 2000 rpm for 2 min and supernatant was discarded. Cells were washed twice with 500 μL of ice-cold FC buffer and resuspended with […]. The cells were then transferred from the deep well plate to 96 well round bottom plate, spun at 2000 rpm for 2 min and incubated with 100 μL of 10 μg/mL Alexa Fluor 488 conjugated goat anti-human IgG secondary antibody (ThermoFisher Scientific, A11013) for 30 min. Post incubation, cells were washed with FC buffer and resuspended in 100 μL of FC buffer to read on a BD Accuri C6 flow cytometer. Binding affinity was measured as a dissociation constant KD by GraphPad Prism assuming Michaelis-Menten binding kinetics.

[3] = molecular target: T3, CD123 protein (R&D Systems Catalog No. 301-R3-025/CF) (Homo sapiens (Human), UniProt P26951 19-305); assay: BLI, IgG on anti-human Fc sensor, pH 7.4 and pH 5.4
T3 construct: Bought protein
T3 sequence: T1 sequence

B1: MYT1424 (antibody, V domains shown)
VH: QVQLVQSGAEVKKPGASVKMSCKASGYTFTDYYMKWVKQAPGQGLEWIGHIIPSNGATFYNQKFKGKATLTVDRSISTAYMHLNRLRSDDTAVYYCTRSHLLRASWFAYWGQGTLVTVSS
VL: DFVMTQSPDSLAVSLGERATINCKSSQSLLNSGNQKNYLTWYLQKPGQPPKLLIYWASTRESGVPDRFSGSGSGTDFTLTISSLQAEDVAVYYCQNDYSYPYTFGQGTKLEIK
notes: IgG
binding result [1]: no binding (tested: 50 nM)

B2: MYT1444 (antibody, V domains shown)
VH: B1 VH with H50D, H100A
VL: B1 VL
notes: IgG
binding result [1]: no binding (tested: 50 nM)

B3: MYT1425 (antibody, V domains shown)
VH: B1 VH with H50D, I51H
VL: B1 VL
notes: IgG
binding result [1]: no binding (tested: 50 nM)

B4: MYT1443 (antibody, V domains shown)
VH: B1 VH with H50D, S99H
VL: B1 VL
notes: IgG
binding result [1]: no binding (tested: 50 nM)

B9: IMGN632 (antibody, V domains shown)
VH: QVQLVQSGAEVKKPGASVKVSCKASGYIFTSSIMHWVRQAPGQGLEWIGYIKPYNDGTKYNEKFKGRATLTSDRSTSTAYMELSSLRSEDTAVYYCAREGGNDYYDTMDYWGQGTLVTVSS
VL: DIQMTQSPSSLSASVGDRVTITCRASQDINSYLSWFQQKPGKAPKTLIYRVNRLVDGVPSRFSGSGSGNDYTLTISSLQPEDFATYYCLQYDAFPYTFGQGTKVEIK
notes: IgG from Expi293 supernatant; also called MYT1251; starting ABPC
IC50 [2]: 0.034 nM

B10: MYT2758 (antibody, V domains shown)
VH: B9 VH with H35A, T107H
VL: B9 VL
notes: IgG
IC50 [2]: 0.051 nM

Other lines, results leading:

binding result [1]: no binding (tested: 50 nM)
B5: MYT1427 (antibody, V domains shown)
VH: B1 VH with H50D, P53H
VL: B1 VL
notes: IgG

binding result [1]: no binding (tested: 50 nM)
B6: MYT1441 (antibody, V domains shown)
VH: B1 VH with H50D, T97H
VL: B1 VL
notes: IgG

binding result [1]: no binding (tested: 50 nM)
B7: MYT1450 (antibody, V domains shown)
VH: B1 VH with H50D, W106H
VL: B1 VL
notes: IgG

binding result [1]: no binding (tested: 50 nM)
B8: MYT1447 (antibody, V domains shown)
VH: B1 VH with H50D, R103H
VL: B1 VL
notes: IgG

binding result [3]: no binding (tested: 50 nM)
B11: MYT5476 (antibody, V domains shown)
VH: EVQLLESGGGLVQPGGSLRLSCAVSDYSITSGYYWNWIRQAPGKKLEWMGYISYDGSNNYNPSLKNGRITISRDTSKNTFYLQMNSLRAEDTAVYYCARGEHFYFDSWGQGTLVTVSS
VL: EIVLTQSPGTLSLSPGERATLSCKSSQSLFFGSTQKNYLAWYQQKPGQAPRLLIYWASTRESGIPDRFSGSGSGTDFTLTISRLEPEDFAVYYCQQYYNYPWTFGQGTKLEIK
notes: IgG

binding result [3]: no binding (tested: 50 nM)
B12: MYT5495 (antibody, V domains shown)
VH: B11 VH with H102G
VL: B11 VL with A40H
notes: IgG
